This note sets out measurements from patent US20120316071A1 (published 2012).

Experiment [1] deals with T1, rHuman IGF-1 sR, CF (R&D Systems Cat#391-GR) (human, UniProt P08069 31-932).
T1 construct: Bought soluble receptor; also called insulin-like growth factor-1 soluble receptor
Briefly: ECL Multispot (MSD), 10 nM Fab; blank 320.

Experiment [2] concerns the target T2, rHuman ErbB2/Fc Chimera, CF (R&D Systems Cat#1129-ER) (human, UniProt P04626 23-652).
T2 construct: Bought reagent; also called human epidermal growth factor 2 receptor; Fc part of the bought chimera not given
Briefly: ECL Multispot (MSD), 10 nM Fab; blank 320.

Experiment [3] has as its target T3, rHuman CD44/Fc Chimera, CF (R&D Systems Cat#3660-CD) (human, UniProt P16070 21-220).
T3 construct: Bought reagent; Fc part of the bought chimera not given
Nature of the experiment: ECL Multispot (MSD), 10 nM Fab; blank 320.

Experiment [4] addresses T4, rHuman Erythropoietin R/Fc Chimera, CF (R&D Systems Cat#963-ER) (human, UniProt P19235 25-250).
T4 construct: Bought reagent; also called EPO R; EPO R/Fc; Fc part of the bought chimera not given
T4 sequence (looked up): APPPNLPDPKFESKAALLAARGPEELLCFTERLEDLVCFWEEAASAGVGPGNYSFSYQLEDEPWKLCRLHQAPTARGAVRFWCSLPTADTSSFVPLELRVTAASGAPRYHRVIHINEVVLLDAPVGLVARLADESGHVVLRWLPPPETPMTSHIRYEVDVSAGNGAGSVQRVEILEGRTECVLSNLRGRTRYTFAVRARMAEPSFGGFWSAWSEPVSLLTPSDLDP
Nature of the experiment: ECL Multispot (MSD), 10 nM Fab; blank 320.

Experiment [5] deals with T5, rHuman EGF R/Fc Chimera, CF (R&D Systems Cat#344-ER) (human, UniProt P00533 25-645).
T5 construct: Bought reagent; also called epidermal growth factor receptor; Fc part of the bought chimera not given
Briefly: ECL Multispot (MSD), 10 nM Fab; blank 320.

The target in experiment [6] is T6, rHuman HGF R/c-MET/Fc Chimera, CF (R&D Systems Cat#358-MT/CF) (human, UniProt P08581 25-932).
T6 construct: Bought reagent; also called HGF R/Fc; hepatocyte growth factor receptor; Fc part of the bought chimera not given
Nature of the experiment: ECL Multispot (MSD), 10 nM Fab; blank 320.

Experiment [7] addresses T7, rHuman Notch-1/Fc Chimera, CF (R&D Systems Cat#3647-TK) (human, UniProt P46531 19-526).
T7 construct: Bought reagent; Fc part of the bought chimera not given
Nature of the experiment: ECL Multispot (MSD), 10 nM Fab; blank 320.

Experiment [8] deals with T8, rHuman P-Cadherin/Fc Chimera, CF (R&D Systems Cat#861-PC) (human, UniProt P22223 108-654).
T8 construct: Bought reagent; Fc part of the bought chimera not given
Nature of the experiment: ECL Multispot (MSD), 10 nM Fab; blank 320.

In experiment [9] the target is T1, rHuman IGF-1 sR, CF (R&D Systems …). Nature of the experiment: ECL Multispot (MSD), 10 nM Fab; blank 372.
Experiment [10] concerns the target T2, rHuman ErbB2/Fc Chimera, CF (R&D …). Briefly: ECL Multispot (MSD), 10 nM Fab; blank 372.
The target of experiment [11] is T3, rHuman CD44/Fc Chimera, CF (R&D Systems …). Nature of the experiment: ECL Multispot (MSD), 10 nM Fab; blank 372.
Experiment [12] has as its target T4, rHuman Erythropoietin R/Fc Chimera, CF …. Nature of the experiment: ECL Multispot (MSD), 10 nM Fab; blank 372.
The target of experiment [13] is T5, rHuman EGF R/Fc Chimera, CF (R&D …). Nature of the experiment: ECL Multispot (MSD), 10 nM Fab; blank 372.
Experiment [14] has as its target T6, rHuman HGF R/c-MET/Fc Chimera, CF (R&D …). Briefly: ECL Multispot (MSD), 10 nM Fab; blank 372.
Experiment [15] concerns the target T7, rHuman Notch-1/Fc Chimera, CF (R&D …). Briefly: ECL Multispot (MSD), 10 nM Fab; blank 372.
The target in experiment [16] is T8, rHuman P-Cadherin/Fc Chimera, CF (R&D …). Nature of the experiment: ECL Multispot (MSD), 10 nM Fab; blank 372.
In experiment [17] the target is T1, rHuman IGF-1 sR, CF (R&D Systems …). Briefly: ECL Multispot (MSD), 10 nM Fab; blank 198.
Experiment [18] has as its target T2, rHuman ErbB2/Fc Chimera, CF (R&D …). Briefly: ECL Multispot (MSD), 10 nM Fab; blank 198.
The target in experiment [19] is T3, rHuman CD44/Fc Chimera, CF (R&D Systems …). Nature of the experiment: ECL Multispot (MSD), 10 nM Fab; blank 198.
For experiment [20], the target named is T4, rHuman Erythropoietin R/Fc Chimera, CF …. Briefly: ECL Multispot (MSD), 10 nM Fab; blank 198.
Experiment [21] addresses T5, rHuman EGF R/Fc Chimera, CF (R&D …). Briefly: ECL Multispot (MSD), 10 nM Fab; blank 198.
For experiment [22], the target named is T6, rHuman HGF R/c-MET/Fc Chimera, CF (R&D …). Briefly: ECL Multispot (MSD), 10 nM Fab; blank 198.
In experiment [23] the target is T7, rHuman Notch-1/Fc Chimera, CF (R&D …). Nature of the experiment: ECL Multispot (MSD), 10 nM Fab; blank 198.
For experiment [24], the target named is T8, rHuman P-Cadherin/Fc Chimera, CF (R&D …). Nature of the experiment: ECL Multispot (MSD), 10 nM Fab; blank 198.
Experiment [25] addresses T9, rHuman HGF R/c-MET/Fc Chimera, CF (R&D Systems Cat#358-MT/CF) (human, UniProt P08581 25-932).
T9 construct: Bought reagent; also called HGF R/Fc; hepatocyte growth factor receptor; Fc part of the bought chimera not given
Nature of the experiment: ECL Multispot (MSD) assay, antigen spotted on plate, 10 nM Fab; blank spot of this row 290.

The target in experiment [26] is T10, rHuman EGF R/Fc Chimera, CF (R&D Systems Cat#344-ER) (human, UniProt P00533 25-645).
T10 construct: Bought reagent; also called epidermal growth factor receptor; Fc part of the bought chimera not given
The description is as above.

For experiment [27], the target named is T11, rHuman P-Cadherin/Fc Chimera, CF (R&D Systems Cat#861-PC) (human, UniProt P22223 108-654).
T11 construct: Bought reagent; Fc part of the bought chimera not given
Described as above.

Experiment [28] addresses T12, rHuman IGF-1 sR, CF (R&D Systems Cat#391-GR) (human, UniProt P08069 31-932).
T12 construct: Bought soluble receptor; The column head prints only 'IGF-1'; also called insulin-like growth factor-1 soluble receptor
The description is as above.

In experiment [29] the target is T13, rHuman ErbB2/Fc Chimera, CF (R&D Systems Cat#1129-ER) (human, UniProt P04626 23-652).
T13 construct: Bought reagent; also called human epidermal growth factor 2 receptor; Fc part of the bought chimera not given
The description is as above.

B1: Fab VH1-46_IGHD6-6*01_IGHJ1*01 S102A/S103P/S104F (APF) & L6_IGKJ1*01 (Fab, V domains shown)
VH: QVQLVQSGAEVKKPGASVKVSCKASGYTFTSYYMHWVRQAPGQGLEWMGIINPSGGSTSYAQKFQGRVTMTRDTSTSTVYMELSSLRSEDTAVYYCAREEYAPFSAEYFQHWGQGTLVTVSS
VL: not shown
notes: Tested as a Fab made in E. coli; The heavy chain plasmid A adds CH1 with His6 and Flag tags; The light chain plasmid C adds kappa CL; also called H:APF & L:wt; APF triple mutant
B1: the ECL signal was 270 in experiment [1]; 413 in experiment [2]; 385 in [3]; 421 in experiment [4]; 324 in experiment [5]; 269 in experiment [6]. Further, the ECL signal stood at 390 in experiment [7]; 301 in [8]; 318 in [9]; 513 in experiment [10]; 298 in experiment [11]; 252 in experiment [12]. Besides, the ECL signal in experiment [13] was determined as 460; in [14], 339; in [15], 433; in [16], 338; in [17], 230; in experiment [18], 200. Besides, the ECL signal worked out at 214 in experiment [19]; 228 in [20]; 255 in [21]; 258 in experiment [22]; 336 in [23]; 280 in experiment [24].

B2: Fab VH1-46_IGHD6-6*01_IGHJ1*01 S102A/S103P/S104F/H111F (APFF) & L6_IGKJ1*01 (Fab, V domains shown)
VH: QVQLVQSGAEVKKPGASVKVSCKASGYTFTSYYMHWVRQAPGQGLEWMGIINPSGGSTSYAQKFQGRVTMTRDTSTSTVYMELSSLRSEDTAVYYCAREEYAPFSAEYFQFWGQGTLVTVSS
VL: not shown
notes: Fab format as for APF (CH1 and kappa CL from the expression plasmids); also called APF H111F; H:APFF & L:wt
For B2, the ECL signal in experiment [25] came out at 493; in experiment [26], 409; in experiment [27], 461; in experiment [28], 345; in experiment [29], 370.
